# Measurements from patent publication US12228567B2, “Colorimetric sensor kit for screening therapeutic agent for neurodegenerative disease, including amyloid shelled-gold nanoparticle, and method for screening therapeutic agent for neurodegenerative disease” (Korea University Research and Business Foundation, priority 2019, dated 2025).
# Key:
# [1] = biological target: T1, Aβ(1-42) (Homo sapiens, UniProt P05067); assay: Degradation activity of MMP-9 for the amyloid-gold nanoparticle, Aβ(1-42); assay type: biochemical; conditions: ASGN made with Aβ(1-42)
# T1 construct: can degrade Aβ(1-42)
# From the text: (§1) For investigation of the reactivity of the Amyloid Shelled-Gold Nanoparticle (ASGN), the reactivity of the amyloid-gold nanoparticle with amyloid-degrading proteases (protease XIV and matrix metallopeptidase 9 (MMP-9)) was investigated. As a result, it was confirmed that the composite of the present disclosure can be used not only for drug screening but also for investigation of the activity of an amyloid-degrading enzyme.
# (§2) Therefore, MMP-9 degrades and removes Aβ(1-42) in the Golgi apparatus and the cytoplasm in the neurons of the brain.
# [2] = biological target: Aβ(1-40) (Homo sapiens, UniProt P05067); assay: Degradation activity of MMP-9 for the amyloid-gold nanoparticle, Aβ(1-40); assay type: biochemical; conditions: ASGN made with Aβ(1-40)
# From the text: as §1, §2
# T1 sequence (P05067 672-713 limits assumed): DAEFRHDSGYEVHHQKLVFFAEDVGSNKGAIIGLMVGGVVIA
# Aβ(1-40), sequence (P05067 672-711 limits assumed): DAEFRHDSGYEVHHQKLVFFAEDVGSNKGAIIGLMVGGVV
substance,measurement,setting,value
matrix metallopeptidase 9 [MMP-9],degradation of Aβ(1-42) on the amyloid-gold nanoparticle,[1],specifically degrades Aβ(1-42) only
same,degradation of Aβ(1-40) on the amyloid-gold nanoparticle,[2],cannot degrade
